According to the DeepSol protein solubility set:

assay: soluble on expression in E. coli; label from the status in PepcDB or PDB records

| Sequence | soluble on expression in E. coli |
| --- | --- |
| MLDPARSFDIIGDVHGCALTLERLLDALGYKRVAGVWRHPRRQALFLGDIVDRGPRIREALHIVHDMVEAGQAFCIMGNHEYNALGWVTPALPGSGKAYVREHTPRHARLIDETLTQFAQHPGDWHDFVNWFYQLPLFIDAGRFRLVHACWDPRLIEPLRQQYPDGRIDEHFIQASAVSGSFADTVCNRLLRGTDMRLPDGLTLTGGDGLTRAFFRTKFWEEDPKTYGDIVFQPDALPEEVASTPLSHSQKNALLRYDEDQPMLFVGHYWRSGRPAPIRANLACLDYSAVLYGKLVAYRLDDETRIDPHKFVWVDVDRPQANQLEHHHHHH | soluble |
| GQDSEVLLDGVAKLSSHNNVIEDAIEGVDLTLKGKSEPNKPPAEIGVEYDRQSVRSDIENFVSAYNSFYQTSQALSSVDPTTGQKGPLAGDSTVRSADSRLKAVFSSRIDQAPENLKSLTEFGITTTRQGTLEINYDMLDRQLNNNFNELEKFFGGNTGFAKRIEDAIHGITGITGSIRTREKSLTEQNYRLNDDQAALDRRMEGLEKRTHAKFTAMQDATGKMQGQLGALMSALG | not soluble |
| MSLTRAQLEDMPQYQQVYSSINTWPSKKWYVGKGVHLSELLSLVGIKDDARLLKFTSQDGYTMTLTVKELLVDKRYYFPHFNDNKIGDGEGNIAGSSQGAELVEPIIALISVEGSNNPNYMNDLNTLVLMMGQRAVTEQTGNAFVKYLNKIEVLTSEVPKWDSPQANPGSGEVSAGTMIALSTARMDDDKIYYTTDGSTPNLNSPIYNWIAKRWWSARADILGTYNHPIGPINENTTIKAITIGPGKENSDVATFTYTVPVSKPASETSIVAPNEATNYPDQALEKPLQSEPKATLTDVQNHWAQKNINELIASGIAGGYPDSSFRPDNTITRAEFATMLVKAFNLQNQGGKVFADSEQHWAKEYISRATASGVVSGYDAENFGPDKLITREQMAVMISKAAKLVLKAEAMHFADSAGISEWAKEAVLAANQSGIVKGYPDNTIRPQGSATRAEAVTVIVNALTLKEGHHHHHH | not soluble |
| SVRCYVEIVEKLPERRPDPATIEGCAQLKPNNYLLAWHTPFNEKGSGFGAATKAMCIGLRYWKPERLETLIEVSVECGRMTHNHPTGFLGSLCTALFVSFAAQGKPLVQWGRDMLRAVPLAEEYCRKTIRHTAEYQEHWFYFEAKWQFYLEERKISKDSENKAIFPDNYDAEEREKTYRKWSSEGRGGRRGHDAPMIAYDALLAAGNSWTELCHRAMFHGGESAATGTIAGCLFGLLYGLDLVPKGLYQDLEDKEKLEDLGAALYRLSTEEK | soluble |
| MSLNGEGAVPTLVGYGADTAIETSRRTSRPLAAPVVRKLAKELAVDLAALQRGSGAGGVITRADVLAAARGGVGAGPDVRPVHGVHARMAEKMTLSHKEIPTAKASVEVICAELLRLRDRFVSAAPEITPFALTLRLLVIALKHNVILNSTWVDSGEGPQVHVHRGVHLGFGAATERGLLVPVVTDAQDKNTRELASRVAELITGAREGTLTPAELRGSTFTVSNFGALGVDDGVPVINHPEAAILGLGAIKPRPVVVGGEVVARPTMTLTCVFDHRVVDGAQVAQFMCELRDLIESPETALLDLEGHHHHHH | soluble |
| MLDKQTMVTAHNALPGRTTAMSIDDTHFVNGSSLTAAPQSGQQQILIGMGCFWGAERLFWQLDGVISTSVGYSGGFTPNPTYEEVCSGKTGHTEVVRVIFDPERLPLTELLRAFWERHDPTQGMRQGNDRGTQYRSAIYTFSEDQREIAEASKAAYQALLTAQHRPSITTEILPAGAYYFAETYHQQYLAKNPNGYCGLGGTGVCFPPHSTL | not soluble |
| MTKLQLKYRELKIISVIAASENISHAATVLGIAQANVSKYLADFESKVGLKVFDRTTRQLMLTPFGTALLPYINDMLDRNEQLNNFIADYKHEKRGRVTIYAPTGIITYLSKHVIDKIKDIGDITLSLKTCNLERNAFYEGVEFPDDCDVLISYAPPKDESLVASFITQYAVTAYASQRYLEKHPISRPDELEHHSCILIDSMMIDDANIWRFNVAGSKEVRDYRVKGNYVCDNTQSALELARNHLGIVFAPDKSVQSDLQDGTLVPCFQQPYEWWLDLVAIFRKREYQPWRVQYVLDEMLREIRHQLAQSQQLRPEQAAESED | soluble |
| MGSDKIHHHHHHMVELKAPLTTLWRGKDAFEEVKTLQGEVFRELETRRTLRFELDGKSYFLKWHKGTSLKEIVKNLISLRMPVLGADREWHAIHRLHELGVDTMHGVGFGEKGVNPLTRTSFIITEDLTPTISLEDYCADWAVNPPDAQVKWMIIKRVATMVRKMHAGGINHRDCYICHFLLHLPFTGREEDLKISVIDLHRAQIRQHVPLRWRDKDLIGLYFSSMNIGLTQRDIFRFMREYFSLPLREILQKESGLIHQADVKAARIKERTIRKNL | not soluble |
| MKTIGLLGGMSWESTIPYYRLINEGVKARLGGLHSASLVLHSVDFHDIEACQSAGDWDRAGEILAEAAVGLQQAGAEGIVLCTNTMHKVADAIAARCQVPFLHIADATGRAIAAKGQRRVALLGTRYTMEQTFYRGRLQEQFAIETLIPEADDRAQINQIIFDELCLGTFSEASRDYYLQTIAALAEQGAEGVIFGCTEIGLLVPAELSPLPVFDTAAIHAEDAVNFMLSAGPTPAA | not soluble |
| TRNVTWNIGFNATHYRNKISRLAESKKTDIIDGHAGYVNGLYYYGEGLPMYTNYVQKYAGVSEEGKPQWYYTDKQTGEMKTTTTYSQADLYLCGDAVPDLYGGINTSLSFYGFDFSTQINYSIGGQAYDYGYQALMSPPTSTHLGYNVHKDIYKAWSPENTQSDIPQWQFNDLYSVKTSDRFLTNASSISIQNIQLGYTFSKKTLRSLYLTNLRIYVACDNVYYWSKRKGFDSRVTWNGNKDSSGEYSAVRAFSAGLSLQF | not soluble |
| MSLTESGSCSTARQAKQKRKSHSLSIRRTNSSEQERTGLPREMLEGQDSKLPSSVRSTLLELFGQIEREFENLYIENLELRREIDTLNERLAGEGQAIDGAELSKGQLKTKASHSTSQLSQKLKTTYKASTSKIVSSFKTTTSRAICQLVKEYIGHRDGIWDVSVTRTQPIVLGTASADHTAMLWSIETGKCLVKYAGHVGSVNSIKFHPSEQLALTASGDQTAHIWRYVVQLPTPQPVADTSQQISGEDEIECSDKDEPDIDGDVSSDCPTVRVPLTSLKSHQGVVIAADWLVGGKQVVTASWDRTANMYDVETSELVHSLTGHDQELTHCCTHPTQRLVVTSSRDTTFRLWDFRDPSIHSVNVFQGHTDTVTSAVFTVGDNVVSGSDDRTVKVWDLKNMRSPIATIRTDSAINRINVCVGQKIIALPHDNRQVRLFDMSGVRLARLPRSSRQGHRRMVCCSAWSEDHPICNLFTCGFDRQAIGWNINIPALLQEKEGHHHHHH | not soluble |
| MGSDKIHHHHHHMSKLIETRGLTKKYPGVVALDHVDFDLEPGEVHVLFGENGAGKSTLISMLAGANAPSEGRLLLNGEEVQFESVADAQAKGIYTVFQEFSLIPTLTVAQNIFLGWELRFGPFLDHRAMRARAREMLAELGFDIDPAAIVAQLSRAQQQMVEITKAFHGDLNVLILDEPTASLTDREVDHLFEFVAKLKAQGVGIVYISHRIQEFERIAERVTVLRDGAVIGTVAMAETDEDALVEMMTGRAFDQIYPSITFSPGETLLEVSDLTAPGISGACFQVRRGEVLGVAGLVGSGKSRLFRAVMGLTPVQSGSIRFKGADITNAPTRKIITRGMYYLSPDRKAEGLDLAKNARDNLAVNIISGQRHSGHGPFIPWGAVNARIDQISDHVELHAGYRSKPTSQLSGGNQQKVLFGKCFGQDADLIIFDEPTVGVDMGTRAALYLLIKELAEAGKAIVVISSDLPEAMNIAHRLLVLAHGTITARLSADEMSEDTVLKYFFDETGASQ | not soluble |
| MSLELMEEVDRTVHHMQDEAANFPDPADRASQEEEFSLELRARDRERKLIKKIDETLQLIEDEEYGWCDSCGVEIGIRRLEEGHHHHHH | not soluble |
| MSNGQLVSQVTVGHDKPLDREKVCPMLLRVFVANNRHNPMSEYNSRNGGSVPPSELQMHTWMDCSLRELTSLIKEVNPDARRKGTTFDFAIVQADRGSPRYILRDVGNTTNGERGIDDNKTLQQCKFEVGDFVDVAISLPSQGRRFNNREQGDRFDHRQRQRSPIR | not soluble |
| VAFLCQLFGVYRSSYQAWHHRVKKPDTERIRLKSLVREAFNEGKGSAGARTIAAMVTAKGIPLGRWRAGKLMAELGLVSRQQPKHRYSHQEQEHLDIPNDLDRQFTVTEPNQVWCGDVTYIWTGKCWAYLAVVLDLFARKPIGWAMSFSADSELTKRALEMAFESRRKPQGVMFHRDQGSHYTRKAFRRLLWRYGIKQSLSRRGNCWDNSPMERFFRSLKSEWVPEEGYSDFRKAFRSITNYIQGEPRQSRDFPYVFITFLYPASIRRANGAGAG | soluble |
